Laboratory results as given in patent publication US20220308056.

Molecular target: recombinant SARS-Cov-2 nucleocapsid protein (NP2), P0DTC9

B1: recombinant MASP-2 (rMASP-2) of Example 23 (protein)
chain: TPLGPKWPEPVFGRLASPGFPGEYANDQERRWTLTAPPGYRLRLYFTHFDLELSHLCEYDFVKLSSGAKVLATLCGQESTDTERAPGKDTFYSLGSSLDITFRSDYSNEKPFTGFEAFYAAEDIDECQVAPGEAPTCDHHCHNHLGGFYCSCRAGYVLHRNKRTCSALCSGQVFTQRSGELSSPEYPRPYPKLSSCTYSISLEEGFSVILDFVESFDVETHPETLCPYDFLKIQTDREEHGPFCGKTLPHRIETKSNTVTITFVTDESGDHTGWKIHYTSTAQPCPYPMAPPNGHVSPVQAKYILKDSFSIFCETGYELLQGHLPLKSFTAVCQKDGSWDRPMPACSIVDCGPPDDLPSGRVEYITGPGVTTYKAVIQYSCEETFYTMKVNDGKYVCEADGFWTSSKGEKSLPVCEPVCGLSARTTGGRIYGGQKAKPGDFPWQVLILGGTTAAGALLYDNWVLTAAHAVYEQKHDASALDIRMGTLKRLSPHYTQAWSEAVFIHEGYTHDAGFDNDIALIKLNNKVVINSNITPICLPRKEAESFMRTDDIGTASGWGLTQRGFLARNLMYVDIPIVDHQKCTAAYEKPPYPRGSVTANMLCAGLESGGKDSCRGDSGGALVFLDSETERWFVGGIVSWGSMNCGEAGQYGVYTKVINYIPWIENIISDF
How did the “C4 cleavage on NP2-coated wells (SDS-PAGE Western blot)” value turn out when B1 was run?
The value was “a new band corresponding to C4′α”.
